Experimental data from US20180185504A1.
Blank lines part the entries; values can stand above or below the binder they belong to.

How the values were obtained:
[1] = biological target: mouse PRLR construct with an HA tag on HEK293/mPRLR cells (mouse) (UniProt Q08501); assay: FACS on HEK293/mPRLR cells
[2] = biological target: human prolactin (PRL) (human) (UniProt P01236); assay: ELISA: dimeric PRLR (3.38 pM to 200 nM) on plate-coated human PRL (1 µg/mL), HRP anti-Fc-gamma detection
Sequence of human prolactin (PRL) (human) (P01236 29-227 limits assumed): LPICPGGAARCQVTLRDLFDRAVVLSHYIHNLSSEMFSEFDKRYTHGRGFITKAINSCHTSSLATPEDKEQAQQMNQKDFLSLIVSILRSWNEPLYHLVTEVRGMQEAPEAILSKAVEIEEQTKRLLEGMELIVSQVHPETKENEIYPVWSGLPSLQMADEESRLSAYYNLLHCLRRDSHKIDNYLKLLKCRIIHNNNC

Sequence of mouse PRLR construct with an HA tag on HEK293/mPRLR cells (mouse) (Q08501 20-608): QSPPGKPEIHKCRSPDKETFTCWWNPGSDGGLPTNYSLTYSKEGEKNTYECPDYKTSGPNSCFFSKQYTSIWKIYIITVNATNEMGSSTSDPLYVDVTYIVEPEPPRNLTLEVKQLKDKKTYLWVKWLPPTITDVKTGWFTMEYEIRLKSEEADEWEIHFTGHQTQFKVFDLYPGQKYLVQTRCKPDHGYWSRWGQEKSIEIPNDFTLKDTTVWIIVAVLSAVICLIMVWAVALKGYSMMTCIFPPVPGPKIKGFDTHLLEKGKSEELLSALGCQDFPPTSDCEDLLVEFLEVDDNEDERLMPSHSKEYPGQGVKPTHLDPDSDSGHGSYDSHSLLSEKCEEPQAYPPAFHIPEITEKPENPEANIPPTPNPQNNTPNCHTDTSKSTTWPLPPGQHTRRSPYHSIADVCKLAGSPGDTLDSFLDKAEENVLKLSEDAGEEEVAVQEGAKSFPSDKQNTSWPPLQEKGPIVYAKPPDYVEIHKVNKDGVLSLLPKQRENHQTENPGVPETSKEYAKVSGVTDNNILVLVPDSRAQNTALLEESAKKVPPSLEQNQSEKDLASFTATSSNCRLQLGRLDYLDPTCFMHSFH

FACS Cell Binding (Fold Above Background) [1]: 56 fold
B1: H1H6801P (antibody, human IgG1, V domains shown)
VH: QVQLQQSGPGLVKPSQTLSLTCVISGDSVSSNTAWNWVRQSPSRGLEWLGRTYYRSKWYNDYAVSVKSRITINPDTSKNQFSLLMNSVTPEDTAVYYCARVVRGLNYFDYWGQGTLVTVSS
VL: DIVMTQSPDSLAVSLGERATINCKSSQSVLYNSNNKNYLAWYQQKPGQPPKLLIYWSSSRESGVPDRFSGSGSGTDFTLTISGLQAEDVAIYYCQQYSTIPYTFGQGTKLEIK

EC50 [2]: 4.9 nM
B2: dimeric form of human PRLR (Example 12 ELISA) (Fc fusion, part only; not given: Dimerising Fc part, part only)
chain, part: QLPPGKPEIFKCRSPNKETFTCWWRPGTDGGLPTNYSLTYHREGETLMHECPDYITGGPNSCHFGKQYTSMWRTYIMMVNATNQMGSSFSDELYVDVTYIVQPDPPLELAVEVKQPEDRKPYLWIKWSPPTLIDLKTGWFTLLYEIRLKPEKAAEWEIHFAGQQTEFKILSLHPGQKYLVQVRCKPDHGYWSAWSPATFIQIPSDFTMND
